The text below walks through data of the supplement of paper PMC10567573.

The labels stand for the following.
B1: ELF3 (parent)
chain: RLVYKFGKNSSGWKEEEVLQSRN
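Note: lentivirally expressed fusions sorted by FACS into six bins by GFP to DsRed ratio, PSI derived from sequencing read proportions per bin multiplied by bin number.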

Variants of B1 are the subject of this series. In words: protein stability index of a GFP-peptide fusion (GPS, HEK-293T) (PSI 1-6); higher = more stable. The settings on record: c terminus: native.
Regarding RLVYKFGKNSSGWKEEEVKQSRN, the protein stability index was 3.02. To RLVYKFGKNSSGWKEEEVFQSRN belongs 1.49; to RLVYKFGKNSSGWKEEEVVQSRN, 2.55; to RLVYKFGKNSSGWKEEEVDQSRN, 4.52.

On to RLVYKFGKNSSGWKEEEVCQSRN, for which the protein stability index is 2.33. To RLVYKFGKNSSGWKEEEVYQSRN belongs 1.52; to RLVYKFGKNHSGWKEEEVLQSRN, 2.56; to RLVYKFGKNISGWKEEEVLQSRN, 1.66. On to RLVYKFGKNKSGWKEEEVLQSRN, for which the protein stability index turned out to be 2.23.

Take RLVYKFGKNGSGWKEEEVLQSRN: the protein stability index is 2.11.

Take RLVYKFGKNRSGWKEEEVLQSRN: the protein stability index is 1.18. Turning to RLVYKFGKNASGWKEEEVLQSRN, the protein stability index is 2.64. For RLVYKFGKNYSGWKEEEVLQSRN, the protein stability index is 1.56. Turning to RLVYKFGKNNSGWKEEEVLQSRN, the protein stability index was determined as 2.1.

As to RLVYKFGKNPSGWKEEEVLQSRN, the protein stability index was 2.1. On to RLVYKFGKNESGWKEEEVLQSRN, for which the protein stability index was found to be 2.86.

For the variant RLVYKFGKNCSGWKEEEVLQSRN, the protein stability index came out at 2.55. Take RLVYKFGKNFSGWKEEEVLQSRN: the protein stability index amounted to 1.34.

For the variant RLVYKFGKNTSGWKEEEVLQSRN, the protein stability index was 3.02.

For RLVYKFGKNQSGWKEEEVLQSRN, the protein stability index came out at 2.51. To RLVYKFGKNMSGWKEEEVLQSRN belongs 1.9; to RLVYKFGKNDSGWKEEEVLQSRN, 3.25; to RLVYKFGKNSSGWKEIEVLQSRN, 3.06. As to RLVYKFGKNSSGWKENEVLQSRN, the protein stability index is 2.51. For the variant RLVYKFGKNSSGWKEVEVLQSRN, the protein stability index worked out at 1.04. With RLVYKFGKNSSGWKEHEVLQSRN, the protein stability index came out at 1.25. As for RLVYKFGKNSSGWKEYEVLQSRN, the protein stability index came out at 2.91.

Turning to RLVYKFGKNSSGWKEQEVLQSRN, the protein stability index was found to be 1.25.

Regarding RLVYKFGKNSSGWKEKEVLQSRN, the protein stability index came out at 2.46. To RLVYKFGKNSSGWKEFEVLQSRN belongs 3.9; to RLVYKFGKNSSGWKEDEVLQSRN, 2.15. Consider RLVYKFGKNSSGWKEGEVLQSRN, for which the protein stability index turned out to be 1.5.

RLVYKFGKNSSGWKECEVLQSRN: the protein stability index amounted to 1.94. Take RLVYKFGKNSSGWKELEVLQSRN: the protein stability index amounted to 3.56. Consider RLVYKFGKNSSGFKEEEVLQSRN, for which the protein stability index was determined as 3.03. As for RLVYKFGKNSSGVKEEEVLQSRN, the protein stability index is 3. Take RLVYKFGKNSSGDKEEEVLQSRN: the protein stability index was 4.86.

Turning to RLVYKFGKNSSGEKEEEVLQSRN, the protein stability index worked out at 4.85. To RLVYKFGKNSSGPKEEEVLQSRN belongs 4.45; to RLVYKFGKNSSGLKEEEVLQSRN, 4.02; to RLVYKFGKNSSGMKEEEVLQSRN, 3.91. Take RLVYKFGKNSSGSKEEEVLQSRN: the protein stability index amounted to 3.78. As for RLVYKFGKNSSGTKEEEVLQSRN, the protein stability index worked out at 4.2. Consider RLVYKFGKNSSGCKEEEVLQSRN, for which the protein stability index was 4.09.

Take RLVYKFGKNSSGQKEEEVLQSRN: the protein stability index turned out to be 3.29.

For RLVYKFGKNSSGKKEEEVLQSRN, the protein stability index worked out at 3.85. On to RLVYKFGKNSSGRKEEEVLQSRN, for which the protein stability index amounted to 3.74. For RLVYKFGKNSSGNKEEEVLQSRN, the protein stability index came out at 3.67.

Regarding RLVYKFGKNSSGHKEEEVLQSRN, the protein stability index was 4.28. With RLVYKFGKNSSGYKEEEVLQSRN, the protein stability index came out at 2.96. To RLVYKFGKNSSGIKEEEVLQSRN belongs 3.91; to RLVYKFGKNSSGAKEEEVLQSRN, 4.73. For RLVYKFGKNSSGGKEEEVLQSRN, the protein stability index was determined as 4.27.

In the case of RLVYKFGKNSSGWKEEEVLDSRN, the protein stability index was determined as 3.28. RLVYKFGKNSSGWKEEEVLLSRN: the protein stability index came out at 2.19. On to RLVYKFGKNSSGWKEEEVLHSRN, for which the protein stability index turned out to be 1.76. For the variant RLVYKFGKNSSGWKEEEVLKSRN, the protein stability index turned out to be 1.25. Regarding RLVYKFGKNSSGWKEEEVLPSRN, the protein stability index was found to be 2.38.

RLVYKFGKNSSGWKEEEVLNSRN: the protein stability index was found to be 3.32.

For the variant RLVYKFGKNSSGWKEEEVLMSRN, the protein stability index was 2.06.

For RLVYKFGKNSSGWKEEEVLSSRN, the protein stability index was found to be 2.4. Take RLVYKFGKNSSGWKEEEVLASRN: the protein stability index worked out at 1.89. Regarding RLVYKFGKNSSGWKEEEVLVSRN, the protein stability index was 1.71. RLVYKFGKNSSGWKEEEVLISRN: the protein stability index was found to be 1.71. For the variant RLVYKFGKNSSGWKEEEVLWSRN, the protein stability index turned out to be 1.67. Turning to RLVYKFGKNSSGWKEEEVLYSRN, the protein stability index is 1.79.

As for RLVYKFGKNSSGWKEEEVLESRN, the protein stability index worked out at 3.52. For RLVYKFGKNSSGWKEEEVLCSRN, the protein stability index came out at 2.22.

RLVYKFGKNSSGWKEEEVLGSRN: the protein stability index is 3.4. As to RLVYKFGKNSSGWKEEEVLTSRN, the protein stability index was 1.58. To RLVYKFGKNSVGWKEEEVLQSRN belongs 3.33; to RLVYKFGKNSEGWKEEEVLQSRN, 3.01; to RLVYKFGKNSDGWKEEEVLQSRN, 3.33. Regarding RLVYKFGKNSHGWKEEEVLQSRN, the protein stability index is 1.89. Take RLVYKFGKNSIGWKEEEVLQSRN: the protein stability index was 1.54.

Take RLVYKFGKNSPGWKEEEVLQSRN: the protein stability index amounted to 2.79.

As for RLVYKFGKNSCGWKEEEVLQSRN, the protein stability index amounted to 1.84. To RLVYKFGKNSNGWKEEEVLQSRN belongs 1.89; to RLVYKFGKNSLGWKEEEVLQSRN, 1.78; to RLVYKFGKNSKGWKEEEVLQSRN, 1.6. To RLVYKFGKNSFGWKEEEVLQSRN belongs 1.09; to RLVYKFGKNSMGWKEEEVLQSRN, 1.73; to RLVYKFGKNSTGWKEEEVLQSRN, 2.83. Turning to RLVYKFGKNSRGWKEEEVLQSRN, the protein stability index turned out to be 2.05. For RLVYKFGKNSYGWKEEEVLQSRN, the protein stability index was determined as 2.21. As to RLVYKFGKNSSGWKNEEVLQSRN, the protein stability index turned out to be 1.94. As to RLVYKFGKNSSGWKGEEVLQSRN, the protein stability index was 1.76. RLVYKFGKNSSGWKIEEVLQSRN: the protein stability index is 1.55. For RLVYKFGKNSSGWKDEEVLQSRN, the protein stability index is 1.9. For RLVYKFGKNSSGWKQEEVLQSRN, the protein stability index was found to be 1.76. As to RLVYKFGKNSSGWKCEEVLQSRN, the protein stability index came out at 2.49. Regarding RLVYKFGKNSSGWKKEEVLQSRN, the protein stability index is 3.27. On to RLVYKFGKNSSGWKHEEVLQSRN, for which the protein stability index was determined as 2.81. On to RLVYKFGKNSSGWKFEEVLQSRN, for which the protein stability index was 3. With RLVYKFGKNSSGWKVEEVLQSRN, the protein stability index came to 2.49.

Consider RLVYKFGKNSSGWKAEEVLQSRN, for which the protein stability index was found to be 1.43.

Take RLVYKFGKNSSGWKWEEVLQSRN: the protein stability index stood at 1.86.
